We go through 1 molecule from doi:10.1101/2025.08.31.673313 (bioRxiv, 2025).

In the assay the target is wild-type KRAS peptide on HLA-C*08:02, on peptide-pulsed cells (Homo sapiens, HLA-C*08:02). As to the kind of experiment: flow cytometry on cells.

B1: C8K10D5-1 Fab (Fab, V domains shown)
VH: EVQLVESGGGLVQPGRSLRLSCAASGFTFDQYAMHWVRQAPGKGLEWVSGISAYSLSIGYADSVKGRFTISRDNAKNSLYLQMNSLRAEDTAVYYCARGRSEGVYMDGMDIWGSGTLVTVSS
VL: SYVLTQPPSVSVAPGQTARITCGGNNIKYRDVHWYQQKPGQAPVLVVYQDTLRPQGIPERFSGSNSGNMATLTISRVEAGDEADYYCQVWDWDTDHWVFGGGTDLTVL
With B1, the binding result is recorded as “no binding (tested: 50 nM Fab)”.
